Results on four molecules are retold here after patent US20160046707A1.

Experiment [1] concerns the target recombinant human CCL20 (R&D Systems, #360-MP-025/CF) (human) (UniProt P78556). The experiment in a line: SPR (Biacore), antibody captured by anti-human Fc, human CCL20 injected (monovalent format), 1:1 Langmuir, average of two experiments.
For experiment [2] the target is unchanged. Nature of the experiment: cell-based or functional assay.
Experiment [3] shares this target. The experiment in a line: SPR (Biacore): antibody captured on anti-human Fc, 100 nM chemokine injected; ratio = chemokine binding level over antibody capture level.

Numbering of substitutions follows the chain as printed.

recombinant human CCL20 (R&D Systems, #360-MP-025/CF) (human), sequence (P78556 other isoform, or with tags, fused parts or gaps limits assumed): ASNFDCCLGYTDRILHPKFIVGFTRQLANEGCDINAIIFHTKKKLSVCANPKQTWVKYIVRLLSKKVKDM

B1: humanized anti-human CCL20 antibody 36LK3/36HC2 (antibody, human IgG1, kappa, V domains shown)
VH: QVQLVQSGAEVKKPGASVKVSCKASGYTFTNYWMHWVRQAPGQGLEWMGVIDPSDSYTTYAQKFQGRVTMTVDTSTSTVYMELSSLRSEDTAVYYCARGNYGVDYAMDYWGQGTLVTVSS
VL: DIQMTQSPSSLSASVGDRVTITCGASENIYGALNWYQRKPGKAPKLLIYGATNLADGVPSRFSGSGSGRDYTLTISSLQPEDFATYYCQNVLITPYTFGQGTKLEIKR
Take B1: in experiment [1], the Kd stood at 0.07 nM, the koff amounted to 0.00117 s⁻¹ and the kon came to 1.66e+07 M⁻¹ s⁻¹. In experiment [2], the IC50, chemotaxis assay, Assay-1 was 0.65 nM; the IC50, chemotaxis assay, Assay-2 came to 1.09 nM; the IC50, chemotaxis assay, Assay-3 is 1.3 nM; the IC50, chemotaxis assay, Average was found to be 1.01 nM. In addition, in experiment [2], the IC90, chemotaxis assay, Assay-1 came out at 3.55 nM; the IC90, chemotaxis assay, Assay-2 amounted to 3.35 nM; the IC90, chemotaxis assay, Assay-3 is 6.79 nM; the IC90, chemotaxis assay, Average was found to be 4.56 nM. In addition, in experiment [2], the IC95, chemotaxis assay, Assay-1 turned out to be 7.59 nM; the IC95, chemotaxis assay, Assay-2 came to 5.41 nM; the IC95, chemotaxis assay, Assay-3 worked out at 13.9 nM; the IC95, chemotaxis assay, Average amounted to 8.97 nM. In experiment [3], the ReqCk/ReqAb ratio came out at 0.143.

B2: humanized anti-human CCL20 antibody 36LC3/36HC2 (antibody, human IgG1, kappa, V domains shown)
VH: B1 VH
VL: B1 VL with G24R, R38Q, D70Q, T72S, Q100G
Take B2: in experiment [1], the Kd stood at 0.044 nM, the off-rate (koff) was found to be 0.00061 s⁻¹ and the association rate constant (kon) turned out to be 1.45e+07 M⁻¹ s⁻¹. Further, in experiment [2], the IC50, chemotaxis assay, Assay-1 worked out at 0.9 nM; the IC50, chemotaxis assay, Assay-2 was determined as 1.26 nM; the IC50, chemotaxis assay, Assay-3 worked out at 1.2 nM; the IC50, chemotaxis assay, Average amounted to 1.12 nM. Also, in experiment [2], the IC90, chemotaxis assay, Assay-1 was 4.64 nM; the IC90, chemotaxis assay, Assay-2 came to 5.82 nM; the IC90, chemotaxis assay, Assay-3 worked out at 5.3 nM; the IC90, chemotaxis assay, Average was determined as 5.25 nM. In addition, in experiment [2], the IC95, chemotaxis assay, Assay-1 amounted to 11.8 nM; the IC95, chemotaxis assay, Assay-2 was above 66.8 nM; the IC95, chemotaxis assay, Assay-3 was determined as 10.3 nM. Besides, the ReqCk/ReqAb ratio in experiment [3] was 0.156.

B3: mouse anti-human CCL20 monoclonal antibody 36F7C10 (antibody, V domains shown)
VH: QVQLQQPGAELVKPGASVKMSCKASGYTFTNYWMHWVKQRPGQGLEWIGVIDPSDSYTTYNQKFKGKATLTVDTSSSTAYMQLSSLTSEDSAVYYCTRGNYGVDYAMDYWGQGTSVTVSS
VL: DIQMTQSPASLSASVGETVTITCGASENIYGALNWYQRKQGKSPQLLIYGATNLADGMSSRFSGSGSGRQYSLKISSLHPDDVATYYCQNVLITPYTFGGGTKLEIK
Turning to B3, in experiment [2], the IC50, chemotaxis of human CCR6-transduced B300.19 cells toward 10 nM human CCL20 stood at 1.7 nM; the IC90, chemotaxis of human CCR6-transduced B300.19 cells toward 10 nM human CCL20 came to 3.94 nM; the IC95, chemotaxis of human CCR6-transduced B300.19 cells toward 10 nM human CCL20 was 7.68 nM.

B4: chimeric 36F7C10 antibody (36F7C10-hFc) (antibody, V domains shown)
VH: B3 VH
VL: B3 VL
In the case of B4, in experiment [2], the IC50, chemotaxis of human CCR6-transduced B300.19 cells toward 10 nM human CCL20 stood at 1.44 nM; the IC90, chemotaxis of human CCR6-transduced B300.19 cells toward 10 nM human CCL20 turned out to be 3.51 nM; the IC95, chemotaxis of human CCR6-transduced B300.19 cells toward 10 nM human CCL20 is 5.48 nM. Further, in experiment [3], the ReqCk/ReqAb ratio came out at 0.153.
